Experimental findings from the Human Domainome abundance scans (Beltran et al. 2025) are described below.

± gives the uncertainty stated by the source.

The labels stand for the following.
B1: SAM and SH3 domain-containing protein 1, residues 630 to 700; numbered along this chain, O94885 (parent)
chain: GRPPQPKSVEDLLDRINLKEHMPTFLFNGYEDLDTFKLLEEEDLDELNIRDPEHRAVLLTAVELLQEYDSN

Variants of B1 are the subject of this data set. The data set is described as follows: abundance fitness (aPCA) (normalised: wild type 0, dead -1); higher = more abundant; growth selection in yeast, the domain comes from the species named. As to conditions: Homo sapiens.
For GRPPQPKSVEDLLDRINLKEHLPTFLFNGYEDLDTFKLLEEEDLDELNIRDPEHRAVLLTAVELLQEYDSN [M22L], the abundance fitness came to 0.377 ± 0.032.

Regarding GRPPQPKSVEDLLDRINLKEHSPTFLFNGYEDLDTFKLLEEEDLDELNIRDPEHRAVLLTAVELLQEYDSN [M22S], the abundance fitness is -0.375 ± 0.04.

For GRPPQPKSVEDLLDRINLKEHNPTFLFNGYEDLDTFKLLEEEDLDELNIRDPEHRAVLLTAVELLQEYDSN [M22N], the abundance fitness is -0.503 ± 0.056.

On to GRPPQPKSVEDLLDRINLKEHTPTFLFNGYEDLDTFKLLEEEDLDELNIRDPEHRAVLLTAVELLQEYDSN [M22T], for which the abundance fitness was 0.009 ± 0.04.

Take GRPPQPKSVEDLLDRINLKEHQPTFLFNGYEDLDTFKLLEEEDLDELNIRDPEHRAVLLTAVELLQEYDSN [M22Q]: the abundance fitness is -0.366 ± 0.056.

For the variant GRPPQPKSVEDLLDRINLKEHVPTFLFNGYEDLDTFKLLEEEDLDELNIRDPEHRAVLLTAVELLQEYDSN [M22V], the abundance fitness turned out to be 0.046 ± 0.035.

As to GRPPQPKSVEDLLDRINLKEHYPTFLFNGYEDLDTFKLLEEEDLDELNIRDPEHRAVLLTAVELLQEYDSN [M22Y], the abundance fitness came to 0.277 ± 0.038.

For the variant GRPPQPKSVEDLLDRINLKEHRPTFLFNGYEDLDTFKLLEEEDLDELNIRDPEHRAVLLTAVELLQEYDSN [M22R], the abundance fitness was -0.612 ± 0.046.

As to GRPPQPKSVEDLLDRINLKEHPPTFLFNGYEDLDTFKLLEEEDLDELNIRDPEHRAVLLTAVELLQEYDSN [M22P], the abundance fitness was -0.999 ± 0.087.

For GRPPQPKSVEDLLDRINLKEHWPTFLFNGYEDLDTFKLLEEEDLDELNIRDPEHRAVLLTAVELLQEYDSN [M22W], the abundance fitness is 0.281 ± 0.041.

For GRPPQPKSVEDLLDRINLKEHKPTFLFNGYEDLDTFKLLEEEDLDELNIRDPEHRAVLLTAVELLQEYDSN [M22K], the abundance fitness is -0.252 ± 0.055.

For the variant GRPPQPKSVEDLLDRINLKEHMPHFLFNGYEDLDTFKLLEEEDLDELNIRDPEHRAVLLTAVELLQEYDSN [T24H], the abundance fitness was -0.698 ± 0.064.

On to GRPPQPKSVEDLLDRINLKEHMPMFLFNGYEDLDTFKLLEEEDLDELNIRDPEHRAVLLTAVELLQEYDSN [T24M], for which the abundance fitness is -0.379 ± 0.056.

With GRPPQPKSVEDLLDRINLKEHMPNFLFNGYEDLDTFKLLEEEDLDELNIRDPEHRAVLLTAVELLQEYDSN [T24N], the abundance fitness was -0.314 ± 0.051.

As for GRPPQPKSVEDLLDRINLKEHMPCFLFNGYEDLDTFKLLEEEDLDELNIRDPEHRAVLLTAVELLQEYDSN [T24C], the abundance fitness is -0.474 ± 0.057.

In the case of GRPPQPKSVEDLLDRINLKEHMPGFLFNGYEDLDTFKLLEEEDLDELNIRDPEHRAVLLTAVELLQEYDSN [T24G], the abundance fitness was -0.713 ± 0.056.

As for GRPPQPKSVEDLLDRINLKEHMPEFLFNGYEDLDTFKLLEEEDLDELNIRDPEHRAVLLTAVELLQEYDSN [T24E], the abundance fitness was -0.435 ± 0.077.

Regarding GRPPQPKSVEDLLDRINLKEHMPDFLFNGYEDLDTFKLLEEEDLDELNIRDPEHRAVLLTAVELLQEYDSN [T24D], the abundance fitness was -0.622 ± 0.064.

Consider GRPPQPKSVEDLLDRINLKEHMPKFLFNGYEDLDTFKLLEEEDLDELNIRDPEHRAVLLTAVELLQEYDSN [T24K], for which the abundance fitness is -0.079 ± 0.046.

In the case of GRPPQPKSVEDLLDRINLKEHMPLFLFNGYEDLDTFKLLEEEDLDELNIRDPEHRAVLLTAVELLQEYDSN [T24L], the abundance fitness was -0.367 ± 0.04.

With GRPPQPKSVEDLLDRINLKEHMQTFLFNGYEDLDTFKLLEEEDLDELNIRDPEHRAVLLTAVELLQEYDSN [P23Q], the abundance fitness is -0.017 ± 0.056.

Regarding GRPPQPKSVEDLLDRINLKEHMITFLFNGYEDLDTFKLLEEEDLDELNIRDPEHRAVLLTAVELLQEYDSN [P23I], the abundance fitness was -0.398 ± 0.063.

Consider GRPPQPKSVEDLLDRINLKEHMFTFLFNGYEDLDTFKLLEEEDLDELNIRDPEHRAVLLTAVELLQEYDSN [P23F], for which the abundance fitness is -0.434 ± 0.057.

GRPPQPKSVEDLLDRINLKEHMTTFLFNGYEDLDTFKLLEEEDLDELNIRDPEHRAVLLTAVELLQEYDSN [P23T]: the abundance fitness was -0.019 ± 0.04.

On to GRPPQPKSVEDLLDRINLKEHMGTFLFNGYEDLDTFKLLEEEDLDELNIRDPEHRAVLLTAVELLQEYDSN [P23G], for which the abundance fitness was determined as 0.039 ± 0.043.

As for GRPPQPKSVEDLLDRINLKEHMYTFLFNGYEDLDTFKLLEEEDLDELNIRDPEHRAVLLTAVELLQEYDSN [P23Y], the abundance fitness was -0.271 ± 0.052.

Consider GRPPQPKSVEDLLDRINLKEHMSTFLFNGYEDLDTFKLLEEEDLDELNIRDPEHRAVLLTAVELLQEYDSN [P23S], for which the abundance fitness was 0.038 ± 0.037.

With GRPPQPKSVEDLLDRINLKEHMRTFLFNGYEDLDTFKLLEEEDLDELNIRDPEHRAVLLTAVELLQEYDSN [P23R], the abundance fitness was -0.225 ± 0.045.

Take GRPPQPKSVEDLLDRINLKEHMMTFLFNGYEDLDTFKLLEEEDLDELNIRDPEHRAVLLTAVELLQEYDSN [P23M]: the abundance fitness was -0.268 ± 0.061.

As to GRPPQPKSVEDLLDRINLKEHMATFLFNGYEDLDTFKLLEEEDLDELNIRDPEHRAVLLTAVELLQEYDSN [P23A], the abundance fitness was determined as 0.113 ± 0.043.

As for GRPPQPKSVEDLLDRINLKEHMHTFLFNGYEDLDTFKLLEEEDLDELNIRDPEHRAVLLTAVELLQEYDSN [P23H], the abundance fitness was -0.243 ± 0.052.

In the case of GRPPQPKSVEDLLDRINLKEHMLTFLFNGYEDLDTFKLLEEEDLDELNIRDPEHRAVLLTAVELLQEYDSN [P23L], the abundance fitness was -0.056 ± 0.037.

In the case of GRPPQPKSVEDLLDRINLKEHMWTFLFNGYEDLDTFKLLEEEDLDELNIRDPEHRAVLLTAVELLQEYDSN [P23W], the abundance fitness was -0.103 ± 0.061.

Regarding GRPPQPKSVEDLLDRINLKEHMDTFLFNGYEDLDTFKLLEEEDLDELNIRDPEHRAVLLTAVELLQEYDSN [P23D], the abundance fitness came to 0.199 ± 0.047.

Consider GRPPQPKSVEDLLDRINLKEHMETFLFNGYEDLDTFKLLEEEDLDELNIRDPEHRAVLLTAVELLQEYDSN [P23E], for which the abundance fitness was 0.282 ± 0.049.

As to GRPPQPKSVEDLLDRINLKEHMNTFLFNGYEDLDTFKLLEEEDLDELNIRDPEHRAVLLTAVELLQEYDSN [P23N], the abundance fitness came to 0.102 ± 0.043.

For the variant GRPPQPKSVEDLLDRINLKEHMKTFLFNGYEDLDTFKLLEEEDLDELNIRDPEHRAVLLTAVELLQEYDSN [P23K], the abundance fitness was 0.043 ± 0.053.

In the case of GRPPQPKSVEDLLDRINLKEHMVTFLFNGYEDLDTFKLLEEEDLDELNIRDPEHRAVLLTAVELLQEYDSN [P23V], the abundance fitness is -0.433 ± 0.049.
